This is an account of results in IntAct's records for PubMed 16278825.

To fix the notation:
B1: Ras-related protein Rab-27A (Homo sapiens), P51159 (parent)
chain: MSDGDYDYLIKFLALGDSGVGKTSVLYQYTDGKFNSKFITTVGIDFREKRVVYRASGPDGATGRGQRIHLQLWDTAGQERFRSLTTAFFRDAMGFLLLFDLTNEQSFLNVRNWISQLQMHAYCENPDIVLCGNKSDLEDQRVVKEEEAIALAEKYGIPYFETSAANGTNISQAIEMLLDLIMKRMERCVDKSWIPEGVVRSNGHASTDQLSEEKEKGACGC
partner: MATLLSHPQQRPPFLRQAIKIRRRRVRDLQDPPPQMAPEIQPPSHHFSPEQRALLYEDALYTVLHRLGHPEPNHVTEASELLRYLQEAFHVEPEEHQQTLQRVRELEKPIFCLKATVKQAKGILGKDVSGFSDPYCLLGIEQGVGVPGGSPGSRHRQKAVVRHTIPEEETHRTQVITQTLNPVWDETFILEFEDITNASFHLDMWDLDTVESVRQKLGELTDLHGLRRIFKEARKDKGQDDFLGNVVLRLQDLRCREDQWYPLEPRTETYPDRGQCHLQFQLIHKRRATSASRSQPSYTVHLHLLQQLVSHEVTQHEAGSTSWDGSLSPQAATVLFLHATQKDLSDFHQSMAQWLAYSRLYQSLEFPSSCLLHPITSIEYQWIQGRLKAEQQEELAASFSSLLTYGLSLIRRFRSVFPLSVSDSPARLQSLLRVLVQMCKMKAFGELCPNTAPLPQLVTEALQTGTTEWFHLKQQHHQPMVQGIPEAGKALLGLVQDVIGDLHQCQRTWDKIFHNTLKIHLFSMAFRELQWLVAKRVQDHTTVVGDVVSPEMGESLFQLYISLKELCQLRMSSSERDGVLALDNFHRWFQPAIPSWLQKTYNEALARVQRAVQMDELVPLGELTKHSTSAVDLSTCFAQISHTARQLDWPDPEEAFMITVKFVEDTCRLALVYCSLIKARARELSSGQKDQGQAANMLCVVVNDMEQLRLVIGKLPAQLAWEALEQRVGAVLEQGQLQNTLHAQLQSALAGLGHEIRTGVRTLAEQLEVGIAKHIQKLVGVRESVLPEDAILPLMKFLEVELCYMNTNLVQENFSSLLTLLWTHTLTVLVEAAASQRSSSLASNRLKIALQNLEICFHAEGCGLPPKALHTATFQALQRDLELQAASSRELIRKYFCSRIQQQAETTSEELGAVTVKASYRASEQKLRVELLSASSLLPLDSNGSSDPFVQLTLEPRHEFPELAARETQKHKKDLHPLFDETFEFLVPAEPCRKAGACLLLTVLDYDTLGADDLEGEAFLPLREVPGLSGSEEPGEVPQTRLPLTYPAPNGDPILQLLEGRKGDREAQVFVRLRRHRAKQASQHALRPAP
B2: Protein unc-13 homolog D (Homo sapiens), Q70J99 (parent)
chain: B1 partner

The first assay covers variants of B1. To be noted: with un13d_human UNC13D.
On to T23N, for which the “effect of a mutation on the interaction” value is listed as “disrupting interaction strength”.

In the case of Q78L, the “effect of a mutation on the interaction” value was “with no effect”.

For the variant A87P, the “effect of a mutation on the interaction” value was “disrupting interaction strength”.

The variants in a further assay derive from B2. The note with it: with rb27a_human RAB27A.
In the case of L403P, the “effect of a mutation on the interaction” value is “disrupting interaction strength”.
